Results reported in PMC3368889 (Immunity, 2012).

Target: the molecule itself
Test: SEC

B1: C-terminal fragment of human NLRX1 (residues 629-975) (domain or fragment, UniProt Q86UT6 629-975, looked up)
chain: GLLSAHNRAVLAQLGCPIKNLDALENAQAIKKKLGKLGRQVLPPSELLDHLFFHYEFQNQRFSAEVLSSLRQLNLAGVRMTPVKCTVVAAVLGSGRHALDEVNLASCQLDPAGLRTLLPVFLRARKLGLQLNSLGPEACKDLRDLLLHDQCQITTLRLSNNPLTAAGVAVLMEGLAGNTSVTHLSLLHTGLGDEGLELLAAQLDRNRQLQELNVAYNGAGDTAALALARAAREHPSLELLHLYFNELSSEGRQVLRDLGGAAEGGARVVVSLTEGTAVSEYWSVILSEVQRNLNSWDRARVQRHLELLLRDLEDSRGATLNPWRKAQLLRVEGEVRALLEQLGSSGS
stoichiometry N: 2
